This data set concerns the molecule itself. Briefly: SEC-MALS. For orientation: SEC sorts molecules by how far they enter the pores of the column.

B1: G domain of SEPT7 (domain or fragment)
chain: YRKSVKRGFEFTLMVVGESGLGKSTLINSLFLTDLYSPEYPGPSHRIKKTVQVEQSKVLIKEGGVQLLLTIVDTPGFGDAVDNSNCWQPVIDYIDSKFEDYLNAESRVNRRQMPDNRVQCCLYFIAPSGHGLKPLDIEFMKRLHEKVNIIPLIAKADTLTPEECQQFKKQIMKEIQEHKIKIYEFPETDDEEENKLVKKIKDRLPLAVVGSNTIIEVNGKRVRGRQYPWGVAEVENGEHCDFTILRNMLIRTHMQDLKDVTNNVHYENYRSRKLAAVT
For B1, the stoichiometry N – broadly, a count of units in the complex or per binding partner – was found to be 2.

These data come from article doi:10.1101/2020.07.08.161463 (bioRxiv, 2020).
